Experiments:
[1] = molecular target: LysIME-EF1 CBD (residues 168-237) with an N-terminal 6xHis-tag (E. faecalis phage); assay: SEC; single purified CBD proteins; Superdex 200, 20 mM Tris-HCl pH 8.0, 150 mM NaCl, 0.5 ml/min, 16°C
[2] = molecular target: truncated LysIME-EF1 CBD fragment (8 kDa), product of the internal translation start at M168 (E. faecalis phage); assay: crystal structure; LysIME-EF1 CBD, space group I422, 1.75 Å, one molecule in the asymmetric unit, tetramer by crystallographic symmetry (PDB 6L00)
[3] = molecular target: full-length LysIME-EF1 (wild type), N-terminally 6xHis-tagged (E. faecalis phage); assay: crystal structure; Se-Met WT LysIME-EF1, space group P12(1)1, 1.75 Å, Se-SAD (PDB 6IST)

stoichiometry N [1]	stoichiometry N [2]	stoichiometry N [3]	Substance
4	–	–	LysIME-EF1 CBD (residues 168-237) with an N-terminal 6xHis-tag (domain or fragment)
–	4	3	truncated LysIME-EF1 CBD fragment (8 kDa), product of the internal translation start at M168 (domain or fragment)
